Where a chain is given by its changes, count along the chain named.

B1: Human ST2 IgG1 Antibody 13 (antibody, V domains shown)
VH: QVQLVQSGAEVKKPGSSVKVSCKASGYTFTDYYMHWVRQAPGQGLEWMGGIMPLFGTIKYAQELQGRVTITADESTSTAYMELSSLRSEDTAVYYCARGRVGATDYWGQGTLVTVSS
VL: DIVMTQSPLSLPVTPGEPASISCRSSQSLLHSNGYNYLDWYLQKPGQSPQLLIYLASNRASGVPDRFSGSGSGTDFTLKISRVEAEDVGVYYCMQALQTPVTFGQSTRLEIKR
notes: IgG1; also called ST2 Antibody 13
B2: Human ST2 IgG1 Antibody 16 (antibody, V domains shown)
VH: QVQLVQSGAEVKKPGASVKVSCKASGYTFTSHYMHWVRQAPGQGLEWMGIINPSGGSTSYAQKFQGRVTMTRDTSTSTVYMELSSLRSEDTAVYYCARAGIGYLAAHDLYYYYGMDVWGRGTLVTVSS
VL: EIVMTQSPATLSVSPGERATLSCRASQSVSSNFAWYQQKPGQAPRLLIYGASTRATGIPARFSGSGSGTEFTLTISSLQSEDFAVYYCQQYYSTPYTFGQGTKVEIKR
notes: IgG1; also called ST2 Antibody 16
B3: Human ST2 IgG1 Antibody 18 (antibody, V domains shown)
VH: QVQLVQSGAEVKKPGSQVKVSCKASGYTFTSFGISWVRQAPGQGLEWLGGIIPTLGTANYAQKFQGRVTITADDSTSTAYMELSSLRSEDTAVYYCAGGAAAGPDKYYGMDVWGQGTTVTVSS
VL: not shown
notes: IgG1; also called ST2 Antibody 18
B4: Human ST2 IgG1 Antibody 4 (antibody, V domains shown)
VH: QVQLVQSGAEVKKPGSSVKVSCKASGGTFSTFGVSWVRQAPGQGLEWMGRIIPILATTNYAQKFQGRVTITADESTSTAYMELSSLRSEDTAVYYCASGDYYDSSGYYGYFQHWGQGTLVTVSS
VL: EIVMTQSPATLSVSPGERATLSCRASQSVSSSYLAWYQQKPGQAPRLLIYGASTRATGIPARFSGSGSGTEFTLTISSLQSEDFAVYYCQQSYSIPFTFGQGTKLEIKR
notes: IgG1; also called ST2 Antibody 4
B5: Human ST2 IgG1 Antibody 11 (antibody, V domains shown)
VH: QVQLVQSGAEVKKPGASVKVSCKASGGTFSSYAISWVRQAPGQGLEWMGWINPNSGGTNYAQKFQGRVTMTRDTSTSTVYMELSSLRSEDTAVYYCAMDTNYYYGMDVWGQGTTVTVSS
VL: DIQMTQSPSSLSASVGDRVTITCQASEDIANNLNWYQQKPGKAPKLLIYAASSLQSGVPSRFSGSGSGTDFTLTISSLQPEDFATYYCQQGYNIPFTFGQGTKLEIKR
notes: IgG1; also called ST2 Antibody 11
B6: Human ST2 IgG1 Antibody 7 (antibody, V domains shown)
VH: QVQLVQSGAEVKKPGASVKVSCKASGYTFTDSYIHWVRQAPGQGLEWMGWMNPNSGNTGYAQKFQGRVTMTRDTSTSTVYMELSSLRSEDTAVYYCARGVFDYGDYGYYYHYMDVWGKGTTVTVSS
VL: DIVMTQSPLSLPVTPGEPASISCRSSQSLLHSNGYNYLDWYLQKPGQSPQLLIYGASTLQPGVPDRFSGSGSGTDFTLKISRVEAEDVGVYYCMQGTQWPTFGQGTKLEIKR
notes: IgG1; also called ST2 Antibody 7
B7: Human ST2 IgG1 Antibody 1 (antibody, V domains shown)
VH: QVQLVQSGAEVKKPGSSVKVSCKASGGTFSSYAISWVRQAPGQGLEWMGGIIPIFGTANYAQKFQGRVTITADESTSTAYMELSSLRSEDTAVYYCAKSILGGRIFGGYFDLWGRGTLVTVSS
VL: DIVMTQSPLSLPVTPGEPASISCRSSQSLLHSNGYNYLDWYLQKPGQSPQLLIYAASSLQSGVPDRFSGSGSGTDFTLKISRVEAEDVGVYYCMQALQTPPTFGQGTKVEIKR
notes: IgG1; also called ST2 Antibody 1
B8: Human ST2 IgG1 Antibody 8 (antibody, V domains shown)
VH: QVQLVQSGAEVKKPGASVKVSCKASGGTFSSYAISWVRQAPGQGLEWMGWISPDNGNTNYAQKLQGRVTMTRDTSTSTVYMELSSLRSEDTAVYYCARLAYDTGYYYYYYMDVWGKGTTVTVSS
VL: B7 VL with S58T, A96G, L97T, Q98H, T99W, P101L
notes: IgG1; also called ST2 Antibody 8
B9: Human ST2 IgG1 Antibody 14 (antibody, V domains shown)
VH: QVQLVQSGAEVKKPGSSVKVSCKASGYTFTSYGISWVRQAPGQGLEWMGGIIPIFGTANYAPRFQGRVTITADESTSTAYMELSSLRSEDTAVYYCARDTVSMDVWGQGTTVTVSS
VL: B7 VL with A55D, S58N, Q60E, S61T, A96G, L97A, Q98H, T99W, V109L
notes: IgG1; also called ST2 Antibody 14
B10: Human ST2 IgG1 Antibody 10 (antibody, V domains shown)
VH: QVQLVQSGAEVKKPGSSVKVSCKASGGTFGYYAISWVRQAPGQGLEWMGGIIPMVGTGQYAQEFQGRVTITADESTSTAYMELSSLRSEDTAVYYCAGVEVGATRGYFQHWGQGTLVTVSS
VL: B7 VL with S58T, A96G, L97T, Q98H, T99W, P101T, K108R, V109L
notes: IgG1; also called ST2 Antibody 10
B11: Human ST2 IgG1 Antibody 2 (antibody, V domains shown)
VH: QVQLVQSGAEVKKPGSSVKVSCKASGYTFSDYYVHWVRQAPGQGLEWMGGIIPIVGTANYAQKFQGRVTITADESTSTAYMELSSLRSEDTAVYYCARAGGGDYKSYYFDYWGRGTLVTVSS
VL: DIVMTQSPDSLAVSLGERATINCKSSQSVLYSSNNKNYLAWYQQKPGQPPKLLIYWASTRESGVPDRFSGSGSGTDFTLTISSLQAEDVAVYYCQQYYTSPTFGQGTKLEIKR
notes: IgG1; also called ST2 Antibody 2
B12: Human ST2 IgG1 Antibody 3 (antibody, V domains shown)
VH: QVQLVQSGAEVKKPGSSVKVSCKASGGTFSSYAFSWVRQAPGQGLEWMGGIIPIFGTPNYAQKFQGRVTITADESTSTAYMELSSLRSEDTAVYYCARVRAKRPNWYFDLWGRGTLVTVSS
VL: not shown
notes: IgG1; also called ST2 Antibody 3
B13: Human ST2 IgG1 Antibody 15 (antibody, V domains shown)
VH: B12 VH with F34I, I54M, P58T, R98T, R100A, K102A, R103G
VL: B5 VL with E27Q, D28G, A30S, N32Y, S53T, G91S, N93S, I94T, F96P, L104V
notes: IgG1; also called ST2 Antibody 15
B14: Human ST2 IgG1 Antibody 5 (antibody, V domains shown)
VH: EVQLLESGGGLVQPGGSLRLSCAASGFTFSSYWMSWVRQAPGKGLEWVSSISSDTTYKYYADSVKGRFTISRDNSKNTLYLQMNSLRAEDTAVYYCAREVDTAMKNWGQGTLVTVSS
VL: DIQMTQSPSSLSASVGDRVTITCRASQGIGNDLAWYQQKPGKAPKLLIYAASSLQSGVPSRFSGSGSGTDFTLTISSLQPEDFATYYCQQSYSTPYTFGQGTKVEIKR
notes: IgG1; also called ST2 Antibody 5
B15: Human ST2 IgG1 Antibody 17 (antibody, V domains shown)
VH: QVQLVQSGAEVKKPGASVKVSCKASGYTFTDSFMFWVRQAPGQGLEWVGLINPGTGATIFAQKFQGRVTMTRDTSTSTVYMELSSLRSEDTAVYYCARSSDYDSSDYWGQGTLVTVSS
VL: B14 VL with G28S, G30S, N31T, D32W, A50G, S93N, T94S
notes: IgG1; also called ST2 Antibody 17
B16: Human ST2 IgG1 Antibody 9 (antibody, V domains shown)
VH: EVQLLESGGGLVQPGGSLRLSCAASGFAFSSHWMHWVRQAPGKGLEWVATISSGSHSIHYADSVKGRFTISRDNSKNTLYLQMNSLRAEDTAVYYCAREAGTSYYYYGMDVWGKGTTVTVSS
VL: B14 VL with R24Q, G28D, G30R, D32Y, A34N, A50K, Q55E, Y96P, Q100G
notes: IgG1; also called ST2 Antibody 9
B17: Human ST2 IgG1 Antibody 12 (antibody, V domains shown)
VH: QVQLVQSGAEVKKPGASVKVSCKASGYTFTGYYMHWVRQAPGQGLEWMGIIDPSGGGTSYAQKFQGRVTMTRDTSTSTVYMELSSLRSEDTAVYYCAKDIVVVPAAIANYYYGMDVWGQGTTVTVSS
VL: B14 VL with A25V, G30S, D32Y, A34N, A50G, S53T, Y96W, Q100P, E105D
notes: IgG1; also called ST2 Antibody 12
B18: Human ST2 IgG1 Antibody 6 (antibody, V domains shown)
VH: EVQLLESGGGLVKPGGSLRLSCAASGFTFSSYWMSWVRQAPGKGLEWVSAIGGSGAGTYYADSVKGRFTISLDDSKNTLYLQMNSLKTEDTAVYYCARLSTVTRGFDYWGQGTLVTVSS
VL: B14 VL with G28S, G30S, D32W, A50S, S56N, Y96P
notes: IgG1; also called ST2 Antibody 6

For this test, the target named is T1, Human ST2 (human, UniProt Q01638 19-328, limits assumed).
T1 construct: also called human ST2 protein; Interleukin 1 receptor-like 1
T1 sequence (looked up): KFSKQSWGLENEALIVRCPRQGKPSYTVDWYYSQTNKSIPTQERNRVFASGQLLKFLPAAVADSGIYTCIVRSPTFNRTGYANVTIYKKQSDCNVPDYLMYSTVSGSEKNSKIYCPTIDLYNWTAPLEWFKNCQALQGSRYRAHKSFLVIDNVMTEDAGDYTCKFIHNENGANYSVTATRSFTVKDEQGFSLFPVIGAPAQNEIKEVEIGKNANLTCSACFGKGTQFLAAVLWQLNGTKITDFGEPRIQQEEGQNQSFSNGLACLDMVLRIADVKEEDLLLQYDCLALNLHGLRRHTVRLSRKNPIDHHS
Kind of test: SPR (Carterra), antibody immobilized, ST2 analyte. The protocol: Binding of the reformatted human ST2 antibodies to the human and mouse ST2 proteins was evaluated by surface plasmon resonance (SPR), using a high throughput antibody screening and characterization platform from Carterra (Salt Lake City, Utah).
For orientation: Kd means the concentration at which binding is half-saturated. A low value points to higher affinity. Usually koff stands for the first-order rate constant of dissociation. A higher koff goes with a short-lived complex. The term kon denotes the second-order rate constant of association. On to B1, for which the Kd was found to be 201 nM, the koff came to 0.04 s⁻¹ and the kon worked out at 200000 M⁻¹ s⁻¹.

In turn, B2 registered a Kd of 96 nM, a koff of 0.056 s⁻¹ and a kon of 580000 M⁻¹ s⁻¹.

On to B3, for which binding was characterised by a dissociation constant (Kd) of 1100 nM, the koff is 0.11 s⁻¹ and the kon stood at 95000 M⁻¹ s⁻¹.

Consider B4, for which binding was put at a Kd of 12 nM, the koff was 0.0025 s⁻¹ and the kon is 210000 M⁻¹ s⁻¹.

In turn, B5 yielded a Kd of 25 nM, a koff of 0.019 s⁻¹ and an on-rate (kon) of 780000 M⁻¹ s⁻¹.

In the case of B6, binding was characterised by a dissociation constant (Kd) of 15 nM, the koff worked out at 0.0044 s⁻¹ and the kon was 290000 M⁻¹ s⁻¹.

In the case of B7, the Kd is 617 nM, the koff is 0.072 s⁻¹ and the kon amounted to 120000 M⁻¹ s⁻¹.

For B8, the affinity, expressed as Kd, was 153 nM; the koff was determined as 0.017 s⁻¹; the kon was 110000 M⁻¹ s⁻¹.

In turn, B9 registered a Kd of 42 nM, a koff of 0.017 s⁻¹ and a kon of 400000 M⁻¹ s⁻¹.

For the molecule B10, the Kd came out at 131 nM, the koff came to 0.079 s⁻¹ and the kon worked out at 600000 M⁻¹ s⁻¹.

Molecule B11 displayed a Kd of 229 nM, a koff of 0.11 s⁻¹ and an on-rate constant (kon) of 500000 M⁻¹ s⁻¹.

B12 showed a Kd of 146 nM, a koff of 0.042 s⁻¹ and a kon of 290000 M⁻¹ s⁻¹.

As for B13, the affinity, expressed as Kd, was 769 nM; the off-rate (koff) was 0.14 s⁻¹; the kon amounted to 190000 M⁻¹ s⁻¹.

For B14, binding was characterised by a dissociation constant (Kd) of 190 nM, the koff came to 0.048 s⁻¹ and the association rate constant (kon) was determined as 250000 M⁻¹ s⁻¹.

For B15, the Kd was 433 nM, the koff was determined as 0.033 s⁻¹ and the kon came to 76000 M⁻¹ s⁻¹.

Regarding B16, binding was put at a Kd of 293 nM, the koff was found to be 0.036 s⁻¹ and the kon amounted to 120000 M⁻¹ s⁻¹.

B17 had a Kd of 217 nM, a koff of 0.024 s⁻¹ and a kon of 110000 M⁻¹ s⁻¹.

As for B18, the Kd turned out to be 166 nM, the koff amounted to 0.057 s⁻¹ and the kon was determined as 340000 M⁻¹ s⁻¹.

The values are drawn from US20210403579A1 (DELINIA, published 2021).
